One data set relates to T1, ECF-PanT.
T1 construct: four-subunit complex, 10xHis-TEV on EcfA, Strep on PanT; expressed in E. coli MC1061; purified in DDM, reconstituted in proteoliposomes; ~120 kDa; Energy-coupling factor transporter transmembrane protein EcfT
As to the kind of experiment: initial rate of radiolabelled uptake into proteoliposomes. The note with it: 5 mM lumenal Mg-ATP, pH 7.5, 30 °C; labelled compound (3H tracer); read-out: apparent Km. Format: biochemical, Lactobacillus delbrueckii subsp. bulgaricus.

In a further data set the test system is T2, ECF-FolT2.
T2 construct: four-subunit complex, 10xHis-TEV on EcfA, Strep on FolT2; expressed in E. coli MC1061; purified in DDM, reconstituted in proteoliposomes; ~120 kDa; Energy-coupling factor transporter transmembrane protein EcfT
The description is as above. The data set is classed as biochemical, Lactobacillus delbrueckii subsp. bulgaricus. The following applies: 10 mM lumenal Mg-ATP, pH 7.5, 30 °C; labelled compound (3H tracer); read-out: apparent Km.

Substrate in data set [1]: Nc1ncnc2c1ncn2[C@@H]1O[C@H](COP(=O)(O)OP(=O)(O)OP(=O)(O)O)[C@@H](O)[C@H]1O
Kind of data set: initial rate of radiolabelled pantothenate uptake into proteoliposomes at varied lumenal ATP. Format: biochemical, Lactobacillus delbrueckii. The note with it: 100 nM pantothenate, Mg2+, pH 7.5, 30 °C, sigmoidal, cooperative.

Substrate in data set [2]: Nc1ncnc2c1ncn2[C@@H]1O[C@H](COP(=O)(O)OP(=O)(O)OP(=O)(O)O)[C@@H](O)[C@H]1O
As to the kind of experiment: initial rate of radiolabelled folate uptake into proteoliposomes at varied lumenal ATP. The data set is classed as biochemical, Lactobacillus delbrueckii. The note with it: 100 nM folate, Mg2+, pH 7.5, 30 °C, sigmoidal, cooperative.

In data set [3] the target is T3, ECF-PanT (whole pantothenate transporter complex: EcfA, EcfA', EcfT, PanT) (Lactobacillus delbrueckii subsp. …).
T3 construct: Four subunits, Mw ~120 kDa as printed for a full ECF-transporter complex; source: SEC in DDM; copies: + + +
T3 chain 1: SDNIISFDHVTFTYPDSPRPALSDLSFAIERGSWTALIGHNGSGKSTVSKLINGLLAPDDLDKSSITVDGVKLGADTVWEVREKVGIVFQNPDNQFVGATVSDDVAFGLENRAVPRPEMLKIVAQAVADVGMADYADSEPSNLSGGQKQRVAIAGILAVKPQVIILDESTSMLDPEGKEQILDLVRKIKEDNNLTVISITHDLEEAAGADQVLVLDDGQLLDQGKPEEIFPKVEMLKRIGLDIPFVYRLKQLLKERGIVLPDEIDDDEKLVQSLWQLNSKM
T3 chain 2: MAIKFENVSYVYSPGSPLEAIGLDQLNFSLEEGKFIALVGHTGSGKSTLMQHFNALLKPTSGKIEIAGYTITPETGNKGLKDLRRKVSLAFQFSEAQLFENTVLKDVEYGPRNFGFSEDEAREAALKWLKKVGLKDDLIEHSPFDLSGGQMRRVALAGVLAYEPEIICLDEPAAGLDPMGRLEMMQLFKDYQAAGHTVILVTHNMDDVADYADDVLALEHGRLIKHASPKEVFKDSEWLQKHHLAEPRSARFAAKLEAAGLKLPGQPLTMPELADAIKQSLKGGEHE
T3 chain 3: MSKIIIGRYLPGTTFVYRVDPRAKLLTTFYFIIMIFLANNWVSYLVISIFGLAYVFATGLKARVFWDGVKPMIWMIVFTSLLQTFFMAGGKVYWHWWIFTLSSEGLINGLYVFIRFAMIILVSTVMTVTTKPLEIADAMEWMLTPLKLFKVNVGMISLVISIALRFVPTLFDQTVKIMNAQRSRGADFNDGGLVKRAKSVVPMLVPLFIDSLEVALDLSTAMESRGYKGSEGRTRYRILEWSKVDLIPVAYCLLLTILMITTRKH
As to the kind of experiment: crystal structure; ECF-PanT-Nanobody 81 complex at 5 mg/mL with 5 mM MgATPγS; 70 mM sodium citrate pH 4.5, 22% (v/v) PEG300, 5°C; 2.8 Å, space group P1, two copies of the complex in the asymmetric unit. The note with it: both partners purified.

`CC(C)(CO)[C@@H](O)C(=O)NCCC(=O)O` [pantothenate]: in the data set with ECF-PanT, the Km was found to be 0.046 ± 0.011 µM.

For `Nc1nc2ncc(CNc3ccc(C(=O)N[C@@H](CCC(=O)O)C(=O)O)cc3)nc2c(=O)[nH]1` [folate], the Km with ECF-FolT2 was 0.082 ± 0.02 µM.

B1: ECF-PanT (Lactobacillus delbrueckii subsp. bulgaricus ATCC 11842 = JCM 1002) (protein)
chain 1: MSDNIISFDHVTFTYPDSPRPALSDLSFAIERGSWTALIGHNGSGKSTVSKLINGLLAPDDLDKSSITVDGVKLGADTVWEVREKVGIVFQNPDNQFVGATVSDDVAFGLENRAVPRPEMLKIVAQAVADVGMADYADSEPSNLSGGQKQRVAIAGILAVKPQVIILDESTSMLDPEGKEQILDLVRKIKEDNNLTVISITHDLEEAAGADQVLVLDDGQLLDQGKPEEIFPKVEMLKRIGLDIPFVYRLKQLLKERGIVLPDEIDDDEKLVQSLWQLNSKM
chain 2: T3 chain 2
notes: with Energy-coupling factor transporter transmembrane protein EcfT; Pantothenate ECF transporter S component PanT
On to B1, for which the Km in data set [1] stood at 5600 ± 1000 µM.

B2: ECF-FolT2 (Lactobacillus delbrueckii subsp. bulgaricus ATCC 11842 = JCM 1002) (protein)
chain 1: B1 chain 1
chain 2: T3 chain 2
notes: with Energy-coupling factor transporter transmembrane protein EcfT; Folate ECF transporter S component FolT2
For the molecule B2, the Km in data set [2] is 5600 ± 1700 µM.

B3: nanobody CA14381 (Nb81) (VHH)
VHH: QVQLVESGGGLVQPGGSLRLSCTASGFTLDDYAIGWFRQAPGKEREGISCISRSGSSTTYADSVKGRFTISRDRAENTVYLQMNSLKPEDTADYYCAATPVWYWSCAVKVGPYDYWGQGTQVTVSS
notes: the nanobody chain of PDB 6ZG3 (solved here); Llama (Lama glama) nanobody selected by phage display against ECF-PanT; Cloned in a Golden Gate variant of pMESy4 (GenBank KF415192); also called nanobody 81; Nanobody 81; source: E. coli WK6 periplasm, purified (Ni-Sepharose, desalting)
With B3, the binding result in data set [3] is listed as “binds”.

The term Km denotes the concentration of substrate that gives half-maximal velocity.
